Results as given in patent publication US9975933B2, “Tumor tissue-penetrating peptide specific to neuropilin and fusion protein having same peptide fused therein” (AJOU UNIVERSITY INDUSTRY-ACADEMIC COOPERATION FOUNDATION, priority 2013, dated 2018).

Tests used:
VE-cadherin in HUVEC = assay: Western blot of VE-cadherin in HUVEC; format: cell-based, human; conditions: single peptides and Fc-TPP 1 μM, 10 minutes
Text: During this process, a decrease in vascular endothelial (VE)-cadherin, phosphorylation, etc. of endothelial cells occur. That is, VE-cadherin or epithelial (E)-cadherin involves in adhesion between endothelial cells, while forming the base of adherent junction between endothelial cells and epithelial cells. The change in molecules relieve the density of adherent junction, which results in increasing permeability of blood vessels and improving intracellular permeability.
As an experimental method for indirectly confirming improvement of vascular permeability based thereon, a change in VE-cadherin was confirmed through a Western blot. Specifically, HUVECs were seeded into 6-well plates at a density of 3×10^5 per well, followed by incubation for 24 hours. Thereafter, single peptides and Fc-TPP were treated with 1 μM for 10 minutes to perform a Western blot. Gel subjected to SDS-PAGE was transported into PVDF membrane, a primary antibody (SantaCruz) and an HRP-conjugated secondary antibody (SantaCruz) which recognize VE-cadherin and (3-actin, respectively were used for detection. ImageQuant LAS4000 mini (GE Healthcare) was used for analysis.

HUVEC [1] = assay: Transwell assay of vascular endothelial cell permeability; format: cell-based, human; conditions: 30 minutes
Description: Based on the above experimental results, as experiments for confirming the improvement of vascular endothelial cell permeability, single peptides and Fc-TPP were treated to conduct Transwell assay.
Specifically, HUVECs were seeded into Transwell plate (Corning) at a density of 5×10^4 per well in a upper chamber using Endothelial Growth Medium, PromoCell (EGM) medium, followed by incubation at 37° C. for 3 days under 5% CO2 condition. […] Thereafter, Dextran-FITC (Sigma) 50 μg was put into the upper chamber and the medium of the lower chamber was sampled to measure its fluorescence after 30 minutes, using the principle that a fluorescent substance is observed in the lower chamber when the permeability in HUVECs was improved.

[2] = biological target: T1, NRP2-b1b2 (b1b2 domain of neuropilin-2) (Homo sapiens, UniProt O60462); assay: SPR (Biacore2000) binding to b1b2 domain of neuropilin-2; conditions: for Kd: read-out: Binding affinity KD
T1 construct: b1b2 domains (275-595) of neuropilin-2
T1 sequence (O60462 275-595): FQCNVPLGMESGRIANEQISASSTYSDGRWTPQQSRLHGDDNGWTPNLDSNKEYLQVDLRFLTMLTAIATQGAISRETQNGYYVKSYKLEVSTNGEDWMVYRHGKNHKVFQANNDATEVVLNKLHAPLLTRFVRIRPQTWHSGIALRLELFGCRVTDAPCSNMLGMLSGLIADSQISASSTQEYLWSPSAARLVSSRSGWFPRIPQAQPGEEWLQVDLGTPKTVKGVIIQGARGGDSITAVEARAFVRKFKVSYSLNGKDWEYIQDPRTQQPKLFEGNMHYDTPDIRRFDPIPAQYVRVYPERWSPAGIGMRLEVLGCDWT
Description: (§1) Specifically, each b1b2 domain of neuropilin-1 and -2 was diluted with 10 mM Na-acetate buffer (pH 4.0), and fixed onto CMS sensor chips (GE healthcare, USA) in about 1000 response units (RU). […] After bond and dissociation analysis, the regeneration of CMS chip was performed by streaming a buffer (20 Mm NaOH, 1 M NaCl, pH 10.0) at a stream velocity 30 μl/min for 1 minute.

[3] = biological target: T2, NRP1-b1b2 (b1b2 domain of neuropilin-1) (Homo sapiens, UniProt O14786); assay: SPR (Biacore2000) binding to b1b2 domain of neuropilin-1; conditions: for Association rate ka / Dissociation rate kd / Kd: NRP1-b1b2, SPR; for Kd: read-out: Binding affinity KD
T2 construct: b1b2 domains (273-586) of neuropilin-1
T2 sequence (O14786 273-586): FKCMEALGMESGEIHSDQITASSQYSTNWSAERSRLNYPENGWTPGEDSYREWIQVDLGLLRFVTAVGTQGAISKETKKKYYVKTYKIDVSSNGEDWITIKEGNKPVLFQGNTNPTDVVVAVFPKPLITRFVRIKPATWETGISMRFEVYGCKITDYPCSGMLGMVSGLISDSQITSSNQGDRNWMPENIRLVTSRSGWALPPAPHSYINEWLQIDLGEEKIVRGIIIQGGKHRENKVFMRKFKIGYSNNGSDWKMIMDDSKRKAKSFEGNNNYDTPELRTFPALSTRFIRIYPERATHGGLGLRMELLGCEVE
Description: as §1

FaDu tumor = assay: In vivo Evans Blue assay of vascular permeability; parameters: species or system Balb/c nude mice; conditions: FaDu xenograft, 400 ng, 40 minutes
Description: Additionally, in order to confirm the improvement of vascular permeability in vivo, Evans Blue assay was conducted. […] 40 minutes after injection, the mice were perfused through the heart with PBS containing 1% BSA, and tumor tissues were extracted (FIG. 11d). Then, the extracted tissues were put into 1 ml of […] (Sigma) and reacted at 37° C. overnight under mild shaking condition. Thereafter, the supernatant was obtained from centrifugation to measure the absorbance (600 nm), and the amount that Evans Blue penetrated was quantified.

HUVEC [4] = assay: Tube formation assay in HUVEC; format: cell-based, human; conditions: VEGF165A 20 ng/ml, 8 hours
Description: As an experiment confirming angiogenesis in vitro based thereon, tube formation assay was conducted. As an experimental method, 50 μl of ECMatrix was injected into 96-well plates and polymerized at 37° C. for 2 hours. […] The incubated cells were observed by a microscope to obtain images.

E-cadherin in FaDu = assay: Western blot of E-cadherin in FaDu; format: cell-based, human
Description: In order to confirm the effect of TPP on cancer cells, a change in E-cadherin was analyzed in human head and neck cancer cell line FaDu, under the same conditions as above experiments through Western blot.

A431 tumor = assay: IHC of Fc-TPP infiltration in A431 tumor tissue; format: in vivo, Balb/c nude mice; conditions: A431 xenograft, 5 mg/kg intravenously, 3 hours
Description: 3 hours after injection, tumors were extracted from mice to conduct immunohistochemistry experiment. The extracted tumors were cut into 20 μm thick using a frozen section method, and stained with a primary antibody, CD31 antibody (BD Pharmingen), and a TRITC (red fluorescence)-conjugated secondary antibody. Further, in order to observe Fc-TPP distributed in the tissues, FITC (green fluorescence)-conjugated antibodies recognizing Fc were used.

[5] = system: neuropilin-1 and -2 expressed on cell surface (SK-OV-3); assay: FACS binding to neuropilin-1 and -2 expressed on cell surface; format: cell-based, human
Description: Specifically, after incubating human ovarian cancer cell line (SK-OV-3) under conditions of 5% CO2 and 37° C., 1×10^5 cells per sample were resuspended in a PBS buffer supplemented with 2% BSA and transferred to a FACS tube for conducting experiments.
Then, the mixture was reacted with cell line SK-OV-3 at 4° C. for 1 hour in the same manner and proteins were stained for conducting FACS analysis. […] This means that Fc-TPP binds specifically to neuropilin-1 and -2.
This means that the binding of Fc-TPP to neuropilin-1 and -2 is specific similar to the original ligands.

PPC-1 cells = assay: Confocal microscopy of intracellular penetration and co-localization with neuropilin; format: cell-based, human; conditions: 1 μM, 37° C., 1 hour
Description: In order to confirm whether Fc-TPP has intracellular penetrating capacity by neuropilin-1 and -2, like other neuropilin ligands having intracellular penetrating capacity, confocal microscopy was used to observe intracellular penetration and co-localization with neuropilin-1 and -2.
Specifically, 5×10^4 PPC-1 cells were plated into 24-well plates containing DMEM medium 0.5 ml supplemented with 10% FBS per well, followed by incubation at 37° C. for 24 hours at 5% CO2. When the cells were stabilized, each well was washed with PBS 0.5 ml. […] After the medium was removed and each well was washed with PBS, Fc-TPP was stained with an antibody (Sigma) which specifically recognizes the FITC (green fluorescence)-conjugated Fc, and neuropilin-1 and -2 was stained with a primary antibody (SantaCruz) which recognizes each of them and with a TRITC (red fluorescence)-conjugated secondary antibody (Sigma). Nuclei were stained (blue fluorescence) with DAPI and observed under confocal microscopy.

[6] = single peptides and Fc-TPP 1 μM

Association rate ka [2] | Dissociation rate kd [2] | Association rate ka [3] | Dissociation rate kd [3] | Kd [2] [µM] | difference in binding affinity between GAGA linker and (GGGGS)3 linker clones ([3]; Fc-4A22 compared with Fc-15A22, b1b2 of neuropilin-1 and -2) | Kd [3] [µM] | Substance | change in VE-cadherin (Western blot) (VE-cadherin in HUVEC) | permeability of HUVEC (Transwell, Dextran-FITC) (HUVEC [1]; control ligands about 1.3 nM) | vascular permeability (Evans Blue) (FaDu tumor) | tube formation of HUVEC (HUVEC [4]) | permeability of HUVEC (Transwell, Dextran-FITC) (HUVEC [1]; [6]) | change in E-cadherin (Western blot) (E-cadherin in FaDu) | infiltration into tumor tissue (IHC) (A431 tumor) | cell binding capacity after reaction in advance with b1b2 domains of neuropilin-1 and -2 ([5]; 1 μM protein, 2 μM b1b2 domains, SK-OV-3) | cell binding capacity when mixed with parent ligand Sema3A or Sema3F ([5]; Sema3A (Fc-15A22P) / Sema3F (Fc-15F22P) 100 μg/ml) | cell binding capacity when mixed with VEGF165A ([5]; VEGF165A 1 μg/ml) | co-localization with neuropilin-1 and -2 (PPC-1 cells) | intracellular penetration (confocal microscopy) (PPC-1 cells)
1.17 ± 0.12 × 10^5 M^−1s^−1 | 3.73 ± 0.19 × 10^−3 s^−1 | 9.75 ± 0.53 × 10^5 M^−1s^−1 | 3.42 ± 0.29 × 10^−3 s^−1 | – | – | – | VEGF165: Vascular endothelial cell growth factor-A isoform, neuropilin ligand, control group [reference compound] | a decrease in VE-cadherin was observed | permeability of HUVEC was improved | increased vascular permeability | increased tube formation | – | – | – | – | – | – | – | –
3.94 ± 0.42 × 10^3 M^−1s^−1 | 3.87 ± 0.09 × 10^−2 s^−1 | 4.86 ± 0.98 × 10^3 M^−1s^−1 | 2.95 ± 0.04 × 10^−2 s^−1 | 9.8 | about 10 times | 6.06 | Fc-15A22: Human IgG1 Fc with TPP 15A22 (SEQ ID NO: 6) fused to its C-terminus (GGGGSGGGGSGGGGSHTPGNSNKWKHLQENKKGRNRR) | VE-cadherin was decreased | – | – | – | permeability of HUVEC was improved | induced a decrease in E-cadherin | infiltrated into tumor cells | – | – | – | – | –
1.34 ± 0.24 × 10^4 M^−1s^−1 | 1.23 ± 0.16 × 10^−3 s^−1 | 1.73 ± 0.26 × 10^4 M^−1s^−1 | 1.38 ± 0.12 × 10^−3 s^−1 | 0.0924 | – | 0.0797 | Fc-15F22p: Human IgG1 Fc with TPP 15F22p (SEQ ID NO: 10) fused to its C-terminus (GGGGSGGGGSGGGGSREAPGAPRSPEPQDQKKPRPRR) | induced a decrease in VE-cadherin | – | – | – | improvement of vascular permeability was induced | E-cadherin was decreased | – | remarkably reduced | reduced | reduced | co-localized with neuropilin-1 and -2 | penetrated into cells
